In paper PMC8677719:

test system: GST-Co-NF-kB RHD-only (Capsaspora owczarzaki); experiment: PBM; conditions: ~300 nM protein; EMSA: 10 mM HEPES pH 7.8, 50 mM KCl, 1 mM DTT, 1 mM EDTA, 4% glycerol, 40 ug/ml poly-dI-dC, 2X BSA, 50 ug 293T extract, 30 C 30 min; PBM: 6 mM HEPES pH 7.8 …

Row | Sequence | binding signal
1 | CCGATTAACATCAAGGAATTCCCTGATGTTAATCGG (double strand) [PBM probe AGGAATTCCC] | 4.22 PBM z-score
2 | CCGATTAACATCACGGAATTCCCTGATGTTAATCGG (double strand) [PBM probe CGGAATTCCC] | 3.4 PBM z-score
3 | CCGATTAACATCAGGAATTCCCATGATGTTAATCGG (double strand) [PBM probe GGAATTCCCA] | 4.61 PBM z-score
4 | CCGATTAACATCAGGAATTCCCCTGATGTTAATCGG (double strand) [PBM probe GGAATTCCCC] | 7.64 PBM z-score
5 | CCGATTAACATCAGGGAATTCCCTGATGTTAATCGG (double strand) [PBM probe GGGAATTCCC] | 7.25 PBM z-score
